Results taken from patent publication US6844318B2, “Peptidase-cleavable, targeted antineoplastic drugs and their therapeutic use” (priority 2000, dated 2005).
Read-outs that look alike come from different tables or passages of the source. Residues, ends and D or L forms follow the SMILES beside them. *: point of attachment. Doxorubicin(3'-N) = COc1cccc2c1C(=O)c1c(O)c3c(c(O)c1C2=O)C[C@@](O)(C(=O)CO)C[C@@H]3O[C@H]1C[C@H](N*)[C@H](O)[C@H](C)O1

What was measured:
[1] = Stability of conjugates in Hepes buffer (control of blood stability test); assay type: physicochemical; settings: Hepes buffer pH 7.5, 10 μmolar, 37° C.
Experimental: (§1) The stability of doxorubicin conjugated peptides in human or nude mouse blood was evaluated by reverse phase HPLC with fluorescence detection after an 80% acetonitrile extraction. Individual peptides are prepared as 60 μmolar solutions in Hepes buffer pH 7.5 (50 mM), with CaCl2 (10 mM), Brij-35 (0.1%), followed by dilution to 10 μmolar in fresh heparinized whole blood or buffer. Solutions are incubated (37° C.) with slow continuous rocking. 50 μl reactions are terminated at designated times ranging from 1 minute to 24 hours by vortexing into 200 μl acetonitrile. After a brief centrifugation (1 min, 14,000×g) to pellet the precipitate, the acetonitrile is collected and evaporated to dry under a flow of nitrogen. Extracted samples are resuspended in 50 μl acetonitrile, followed by 100 μl distilled H2O, and transferred to HPLC autoinjector vials. Samples are chromatographed using a Nova-Pak C18 column (3.9×150 mm; WAT086344, Waters Corp. Milford, Ma), with a 12 minute linear gradient from 33.3 to 77.7% acetonitrile, 0.1% TFA, using a flow rate of 1 ml/min. A scanning fluorescence detector (# 474, Waters Corp) monitoring 480 nm excitation, 580 nm emission quantitates AUC of peaks of interest; mass is extrapolated from a standard curve generated under matching conditions.

[2] = Stability of conjugates in nude mouse blood; assay type: in vitro ADME; settings: fresh heparinized whole nude mouse blood, 37° C., read-out: Conjugate Stability in Blood After 5.5 Hours (Percent of Control (In Buffer, T = 0)), Nude Mouse Blood
Experimental: as §1

[3] = Stability of conjugates in human blood; assay type: in vitro ADME; settings: fresh heparinized whole human blood, 37° C., read-out: Conjugate Stability in Blood After 5.5 Hours (Percent of Control (In Buffer, T = 0)), Human Blood
Experimental: as §1

HT1080 cells [4] = test: cells; assay type: cell-based
Experimental: The conjugates were tested for cytotoxic effect against the HT1080 cell line, which expresses multiple MMPs. […] HT 1080 cells in culture have significant levels of MMPs 2, 9, and 14 and are consequently especially suitable for the evaluation of conjugates that are substrates for that enzyme.
The cell line was grown in tissue MEM with Earl's salts containing 10% fetal bovine serum (FBS). On day one, 500 cells were seeded into 96 well plates in 200 ul of cell culture medium that containing 10% FBS which had been stripped of bovine gelatinases by prior passage over a gelatin-sepharose column. On day two, peptidyl-Doxorubicin conjugates and Doxorubicin as a control were added to the plates. The cells were incubated for three days at 37° C., 5% CO2 in a tissue culture cell incubator. MTS reagent was added to each microplate well using the manufacturer's instructions […]. The plates were incubated for 2 hours at 37° C., 5% CO2. The plates were read on a Molecular Devices Spectropmax 250 plate reader at […]. The viability of the cells in each well was then calculated for each concentration of compound tested and compared to the control wells where no compound was added.

[5] = cited from earlier work
PSA protease = PSA protease (Homo sapiens, UniProt P07288); settings: cited from earlier work
Chain of PSA protease (P07288 25-261): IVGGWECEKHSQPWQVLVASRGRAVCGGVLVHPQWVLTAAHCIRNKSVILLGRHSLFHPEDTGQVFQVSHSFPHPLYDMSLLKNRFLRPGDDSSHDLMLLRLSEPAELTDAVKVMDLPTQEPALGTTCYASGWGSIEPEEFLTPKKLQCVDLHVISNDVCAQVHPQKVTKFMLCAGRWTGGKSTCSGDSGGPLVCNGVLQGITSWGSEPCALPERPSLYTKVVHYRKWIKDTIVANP

prostate tumor cells = settings: cited from earlier work
[6] = mice; cited from earlier work
[7] = test system: human ovarian tumor xenograft; settings: equitoxic doses; cited from earlier work
[8] = Phase I trial, in the tumor tissue; cited from earlier work
HT1080 cells [9] = test: Analysis of processing by HT1080 cultures (HPLC); assay type: cell-based
Experimental: Actively growing HT1080 cells are seeded in a 12 well plate at 2×10^5 cells per well in DMEM with 10% serum. On the next day, media is removed and cells are washed twice with PBS. 1.5 of DMEM containing 0.1% BSA, […] Ac-PLG-HofK(Me2)L-Dox (SEQ ID NO: 127) and 40 nM PMA is then added to each well. A broad spectrum MMP inhibitor is added to some samples so that the amount of processing that is due to MMPs can be determined. At the indicated times, 0.1 ml aliquots are removed, added to 0.4 ml acetonitrile, vortexed, and centrifuged for 2 minutes. 0.4 of cleared supernatant is removed and dried using a nitrogen stream. The dried pellet is suspended in 0.12 ml of HPLC Buffer A and analyzed as in Example 1000.
At the times used in this experiment, the only detectable metabolite is L-Dox. HofK(Me2)L-Dox and K(Me2)L-Dox are not detected since they are rapidly converted to L-Dox. At later times, Dox is formed from L-Dox.

[10] = HT1080 cells, three days, MTS, read-out: EC50

Molecule | Conjugate Stability After 5.5 Hours (Percent of Control (In Buffer, T = 0)), Buffer [1] [%] | remaining at 5.5 h, 10 μmolar [2] [%] | remaining at 5.5 h, 10 μmolar [3] [%] | further results
COc1cccc2c1C(=O)c1c(O)c3c(c(O)c1C2=O)C[C@@](O)(C(=O)CO)C[C@@H]3O[C@H]1C[C@H](NC(=O)[C@H](CC(C)C)NC(=O)CNC(=O)[C@H](CC(C)C)NC(=O)[C@@H]2CCCN2C(=O)CNC(C)=O)[C@H](O)[C@H](C)O1 [Ac-GPLG-L-Dox] (Ac-GPLGL-{Doxorubicin(3'-N)}) | 106 | 5.9 | 10.2 | 
COc1cccc2c1C(=O)c1c(O)c3c(c(O)c1C2=O)C[C@@](O)(C(=O)CO)C[C@@H]3O[C@H]1C[C@H](NC(=O)[C@H](CC(C)C)NC(=O)[C@H](C)NC(=O)[C@H](CC(C)C)NC(=O)CNC(=O)[C@H](CC(C)C)NC(=O)[C@@H]2CCCN2C(=O)CNC(C)=O)[C@H](O)[C@H](C)O1 [Ac-GPLG-LAL-Dox, acetyl-G-P-L-G-L-A-L-Dox] (Ac-GPLGLAL-{Doxorubicin(3'-N)}) | 92.2 | 5.8 | 15.4 | 
COc1cccc2c1C(=O)c1c(O)c3c(c(O)c1C2=O)C[C@@](O)(C(=O)CO)C[C@@H]3O[C@H]1C[C@H](NC(=O)[C@H](CC(C)C)NC(=O)[C@H](CC(C)C)NC(=O)CNC(=O)[C@H](CC(C)C)NC(=O)[C@@H]2CCCN2C(=O)CNC(C)=O)[C@H](O)[C@H](C)O1 [Ac-GPLG-LL-Dox, acetyl-G-P-L-G-L-L-Dox] (Ac-GPLGLL-{Doxorubicin(3'-N)}) | 105 | 25.8 | 42.6 | 
COc1cccc2c1C(=O)c1c(O)c3c(c(O)c1C2=O)C[C@@](O)(C(=O)CO)C[C@@H]3O[C@H]1C[C@H](NC(=O)[C@H](CC(C)C)NC(=O)CNC(=O)[C@H](CC(C)C)NC(=O)[C@@H]2CCCN2C(C)=O)[C@H](O)[C@H](C)O1 [Ac-PLG-L-Dox, Ac-PLGL-Dox] (Ac-PLGL-{Doxorubicin(3'-N)}) | 99.2 | 68.2 | 74.7 | 
COc1cccc2c1C(=O)c1c(O)c3c(c(O)c1C2=O)C[C@@](O)(C(=O)CO)C[C@@H]3O[C@H]1C[C@H](NC(=O)[C@H](CC(C)C)NC(=O)[C@H](C)NC(=O)[C@H](CC(C)C)NC(=O)CNC(=O)[C@H](CC(C)C)NC(=O)[C@@H]2CCCN2C(C)=O)[C@H](O)[C@H](C)O1 [Ac-PLG-LAL-Dox, acetyl-P-L-G-L-A-L-Dox] (Ac-PLGLAL-{Doxorubicin(3'-N)}) | 96.8 | 9 | 49.1 | EC50 (HT1080 cells [4]; [10]): < 10 µM
COc1cccc2c1C(=O)c1c(O)c3c(c(O)c1C2=O)C[C@@](O)(C(=O)CO)C[C@@H]3O[C@H]1C[C@H](NC(=O)[C@H](CC(C)C)NC(=O)[C@H](CC(C)C)NC(=O)CNC(=O)[C@H](CC(C)C)NC(=O)[C@@H]2CCCN2C(C)=O)[C@H](O)[C@H](C)O1 [Ac-PLG-LL-Dox, Acetyl-P-L-G-L-L-Dox] (Ac-PLGLL-{Doxorubicin(3'-N)}) | 106 | 63.8 | 87.2 | EC50 (HT1080 cells [4]; [10]): < 10 µM
COc1cccc2c1C(=O)c1c(O)c3c(c(O)c1C2=O)C[C@@](O)(C(=O)CO)C[C@@H]3O[C@H]1C[C@H](NC(=O)[C@H](CC(C)C)NC(=O)[C@H](C)NC(=O)[C@H](CC(C)C)NC(=O)[C@H](CC(C)C)NC(=O)CNC(=O)[C@H](CC(C)C)NC(=O)[C@@H]2CCCN2C(C)=O)[C@H](O)[C@H](C)O1 [Ac-PLG-LLAL-Dox, acetyl -P-L-G-L-L-A-L-Dox] (Ac-PLGLLAL-{Doxorubicin(3'-N)}) | 102.0 | 19.2 | 55.6 | EC50 (HT1080 cells [4]): < 10 µM
COc1cccc2c1C(=O)c1c(O)c3c(c(O)c1C2=O)C[C@@](O)(C(=O)CO)C[C@@H]3O[C@H]1C[C@H](NC(=O)[C@H](CC(C)C)NC(=O)[C@H](C)NC(=O)[C@H](Cc2ccc(O)cc2)NC(=O)[C@H](CC(C)C)NC(=O)CNC(=O)[C@H](CC(C)C)NC(=O)[C@@H]2CCCN2C(C)=O)[C@H](O)[C@H](C)O1 [Ac-PLG-LYAL-Dox, acetyl -P-L-G-L-Y-A-L-Dox] (Ac-PLGLYAL-{Doxorubicin(3'-N)}) | 91.3 | 20 | 37.5 | EC50 (HT1080 cells [4]; [10]): < 10 µM
COc1cccc2c1C(=O)c1c(O)c3c(c(O)c1C2=O)C[C@@](O)(C(=O)CO)C[C@@H]3O[C@H]1C[C@H](NC(=O)[C@H](CC(C)C)NC(=O)[C@H](Cc2ccc(O)cc2)NC(=O)[C@H](CC(C)C)NC(=O)CNC(=O)[C@H](CC(C)C)NC(=O)[C@@H]2CCCN2C(C)=O)[C@H](O)[C@H](C)O1 [Ac-PLG-LYL-Dox, acetyl-P-L-G-L-Y-L-Dox] (Ac-PLGLYL-{Doxorubicin(3'-N)}) | 112 |  | 90.1 | 
COc1cccc2c1C(=O)c1c(O)c3c(c(O)c1C2=O)C[C@@](O)(C(=O)CO)C[C@@H]3O[C@H]1C[C@H](N)[C@H](O)[C@H](C)O1 [Doxorubicin, doxorubicin, reference compound] |  |  |  | cumulative dose in excess of which there is a substantial risk of cardiotoxicity and myelosuppression [5]: 500 to 550 mg doxorubicin/m^2; EC50 (HT1080 cells [4]; Homo sapiens, HT-1080, 72 h, HT1080 cells, three days, MTS, read-out: EC50): 0.008 to 0.009 µM
Ac-HSSKLQ-Leu-Dox: peptide-doxorubicin pro-drug targeted to the prostate-specific antigen (XSSKLQL; N-acetyl, Leu-doxorubicin conjugate) |  |  |  | substrate for the PSA protease (PSA protease): is a substrate for the PSA protease; activity against prostate tumor cells which express the protease activity (prostate tumor cells): is active against prostate tumor cells
Leu-Dox |  |  |  | overall conversion of Leu-Dox to Dox [6]: approximately 20%; anti-tumor efficacy compared with free doxorubicin [7]: more effective anti-tumor agent than free doxorubicin; conversion of Leu-Dox to Dox [8]: approximately 25%
acetyl-P-L-G-Hof-(N,N-dimethyl-K)-L-Dox (XLGXXL; non-natural residues) [Ac-PLG-HofK(Me2)L-Dox] |  |  |  | Fraction of L-Dox (HT1080 cells [9]; 0 hours, Minus MMP inhibitor): 0; Fraction of L-Dox (HT1080 cells [9]; 0 hours, Plus MMP inhibitor): 0; Fraction of L-Dox (HT1080 cells [9]; 3 hours, Minus MMP inhibitor): 0.10; Fraction of L-Dox (HT1080 cells [9]; 3 hours, Plus MMP inhibitor): 0.004; Fraction of L-Dox (HT1080 cells [9]; 5.5 hours, Minus MMP inhibitor): 0.20; Fraction of L-Dox (HT1080 cells [9]; 5.5 hours, Plus MMP inhibitor): 0.01; Fraction of L-Dox (HT1080 cells [9]; 8 hours, Minus MMP inhibitor): 0.46; Fraction of L-Dox (HT1080 cells [9]; 8 hours, Plus MMP inhibitor): 0.02
